Reference: patent publication US20250381225A1 (DEVELOPMENT CENTER FOR BIOTECHNOLOGY, published 2025)

Columns and labels:
[1] = biological target: T1, PD1-hFc (UniProt Q15116 25-167); test: ELISA on coated PD1-hFc, anti-human kappa HRP, one site-specific binding fit
T1 construct: ELISA coat at 1 ug/ml; not shown: hFc (human Fc)
Description: ELISA plates were coated with PD1-hFc (1 ug/ml) and blocked with blocking buffer (5% milk dissolved in PBS). The antibodies from 66.67 nM to […] dilute (4× fold dilution) were then added to the plates. The binding affinity of tested antibody to PD1-hFc was determined via adding goat anti-human KAPPA HRP IgG (1:3,000 dilution), and binding curve and KD were determined by software using one site-specific binding for nonlinear fit methods.

[2] = biological target: T2, recombinant PD-1 protein (UniProt Q15116 25-167, limits assumed); test: ELISA, recombinant PD-1 coated at 0.1 ug/well, serially diluted antibody
T2 construct: It may or may not be the same reagent as PD1-hFc
Description: Antibodies of the invention were evaluated for specific binding to PD-1 using an enzyme-linked immunosorbent assay (ELISA). Briefly, recombinant PD-1 protein was immobilized on a 96-well ELISA plate at 0.1 μg/well. The chimeric anti-human PD-1 2B6 antibody was serially diluted and incubated with the coated PD-1, followed by detection with a horseradish peroxidase (HRP)-conjugated goat anti-mouse IgG secondary antibody. The binding was visualized using 3,3′,5,5′-tetramethylbenzidine (TMB) as a substrate, and the optical density (OD) was measured at 405 nm to assess the binding activity.

[3] = biological target: human PD-1 on PD-1 Effector Cells (Jurkat T cells) (human, UniProt Q15116 25-288); test: cell-based or functional assay
[4] = biological target: T1, PD1-hFc; test: ELISA on PD-1; protein purified from supernatant of 293T cells transfected with the CAR plasmid
Description: To evaluate the expression of the present CAR construct, the plasmid encoding the CAR molecule was transfected into 293T cells. The protein was harvested from the supernatant of the cultured cells, followed by purifying and quantifying via measuring OD260/280. On the other hand, the binding affinity of the purified protein towards PD-1 was determined by ELISA.

[5] = biological target: T1, PD1-hFc; test: ELISA on coated PD1-hFc; scFv-Fc expressed in FreeStyle 293 cells

T1 sequence (Q15116 25-167): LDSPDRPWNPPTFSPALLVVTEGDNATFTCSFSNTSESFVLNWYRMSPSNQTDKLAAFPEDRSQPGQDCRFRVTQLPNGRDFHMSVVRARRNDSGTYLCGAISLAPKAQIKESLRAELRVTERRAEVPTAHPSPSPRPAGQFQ
T2 sequence (Q15116 25-167 limits assumed): as the sequence (Q15116 25-167) above
Sequence of human PD-1 on PD-1 Effector Cells (Jurkat T cells) (Q15116 25-288): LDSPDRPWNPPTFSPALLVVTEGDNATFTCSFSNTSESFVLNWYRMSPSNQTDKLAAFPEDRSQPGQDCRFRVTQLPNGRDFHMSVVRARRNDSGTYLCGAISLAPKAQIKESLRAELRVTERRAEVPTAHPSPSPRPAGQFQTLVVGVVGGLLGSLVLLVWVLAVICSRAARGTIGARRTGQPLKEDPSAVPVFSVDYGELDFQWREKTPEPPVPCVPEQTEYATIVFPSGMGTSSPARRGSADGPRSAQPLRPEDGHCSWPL

Row | Binder | Kd [1] | further results
1 | chimeric anti-human PD-1 2B6 antibody (antibody, V domains shown, also called mAb 2B6; M-M) VH: EVKLVESGGGLVKPGGSLKLSCAAAGFTFSSYTMSWVRQTPAKRLEWVATISGGGANIYYPDSVKGRFTISRDNARNTLYLQMSSLRSEDTAMYYCVSPYYAIDFWGQGTSVTVSS VL: DTVMTQSDKFMSTSVGDRVSITCKASQDVGSAVAWYQQKPGQSPKLLIYWASTRHTGVPDRFTGSGSGTDFTLTISNVQSEDLADYFCQQYSTYTWTFGGGTKLEIK | 0.495 nM | Kd [2]: 0.809 nM; NFAT-RE-mediated luminescence (PD-1/PD-L1 Blockade Bioassay), EC50 [3]: 3.88 nM
2 | humanized antibody 2B6 HdB1 Hd (antibody, V domains shown, Heavy chain HdB1 with light chain Hd) VH: EVQLVESGGGLVQPGGSLRLSCKASGFTFSSYTMSWVRQAPGKGLEWVATISGGGANIYYPDSVKGRFTISRDNSKNTLYLQMNSLRAEDTAVYYCVSPYYAIDFWGQGTLVTVSS VL: DIQMTQSPSSLSASVGDRVTITCKASQDVGSAVAWYQQKPGKAPKLLIYWASTRHTGVPSRFSGSGSGTDFTLTISSLQPEDFATYYCQQYSTYTWTFGQGTKVEIK | 0.368 nM | –
3 | recombinant humanized 2B6 HuB1-scFv-Fc (Fc fusion, Both carry the same printed name and are kept as one molecule; also called 286 HuB1-scFv-Fc; PD-1^2B6 scFv-Fc; not shown: lim) scFv: EVQLVESGGGLVQPGGSLRLSCAASGFTFSSYTMSWVRQAPGKGLEWVATISGGGANIYYPDSVKGRFTISRDNSKNTLYLQMNSLRAEDTAVYYCVSPYYAIDFWGQGTLVTVSSGGGGSGGGGSGGGGSDIQMTQSPSSLSASVGDRVTITCKASQDVGSAVAWYQQKPGKAPKLLIYWASTRHTGVPSRFSGSGSGTDFTLTISSLQPEDFATYYCQQYSTYTWTFGQGTKVEIK | – | Kd [4]: 1.75 nM; Kd [5]: 2.58 nM

Further lines, with some results ahead:

Row | Kd [1] | Binder | further results
4 | 0.403 nM | humanized antibody 2B6 HuB1 Hd (antibody, V domains shown, Heavy chain HuB1 with light chain Hd) VH: EVQLVESGGGLVQPGGSLRLSCAASGFTFSSYTMSWVRQAPGKGLEWVATISGGGANIYYPDSVKGRFTISRDNSKNTLYLQMNSLRAEDTAVYYCVSPYYAIDFWGQGTLVTVSS VL: DIQMTQSPSSLSASVGDRVTITCKASQDVGSAVAWYQQKPGKAPKLLIYWASTRHTGVPSRFSGSGSGTDFTLTISSLQPEDFATYYCQQYSTYTWTFGQGTKVEIK | –
5 | 179 nM | humanized 2B6 4D5 (2B6-HdHd) (antibody, V domains shown, Heavy chain Hd with light chain Hd) VH: EVQLVESGGGLVQPGGSLRLSCKASGFTFSSYTMSWVRQAPGKGLEWVATISGGGANIYYPDSVKGRFTISRDDSKNTLYLQMNSLRAEDTAVYYCARPYYAIDFWGQGTLVTVSS VL: DIQMTQSPSSLSASVGDRVTITCKASQDVGSAVAWYQQKPGKAPKLLIYWASTRHTGVPSRFSGSGSGTDFTLTISSLQPEDFATYYCQQYSTYTWTFGQGTKVEIK | –
